From PMC8546688, “Streptococcus suis MsmK: Novel Cell Division Protein Interacting with FtsZ and Maintaining Cell Shape” (mSphere, 2021) come the findings set out here.

For orientation: Kd means a measure of binding affinity in units of concentration. The low end stands for tighter binding, the high end for weaker binding. In general, koff refers to the first-order rate constant of dissociation. A low value points to slow dissociation. By kon is commonly meant the second-order rate constant of association.

B1: His-tagged FtsZ (filamentous temperature-sensitive protein Z) (natural protein, Streptococcus suis, UniProt A0A0H3MXZ7 1-409, looked up)
chain: MAFSFEAAASHGAVIKVIGVGGGGGNAINRMIEEGVAGVEFIAANTDVQALSSSKAETVIQLGPKLTRGLGAGGQPEVGRKAAEESEEALTNVLTGADMVFITAGMGGGSGTGAAPVIARIAKNLGALTVAVVTRPFGFEGNKRGNFAIEGIEGLREQVDTLLIISNNNLLEIVDKKTPLLEALSEADNVLRQGVQGITDLITNPGLINLDFADVKTVMENKGNALMGIGIGTGEDRVIEAARKAIYSPLLETTIDGAEDVIVNVTGGYDMTLTEAEDASEIVNQAAGQGVNIWLGTSIDETMKDEIRVTVVATGVRQDTADKPARHRTEAVSPRPSHRFDHSVASAPTRGAAQQTEAPKASAFGEWDLRRENLIRPTDTEPTSTVSVEKFTMDQDEDELDTPPFFRNR
notes: FtsZ, tubulin-like cell division protein of Streptococcus suis; The His tag is named for the SPR; also called His-FtsZ; source: purified
B2: His-tagged MsmK (multiple sugar metabolism protein K), full length (enzyme, Streptococcus suis, UniProt A0A0H3N1P0 1-376, looked up)
chain: MVQLNLKNIYKKYPNSEHYSVEDFNLDIKDKEFIVFVGPSGCGKSTTLRMIAGLEDITEGEAYIDGVLMNDVAPKDRDIAMVFQNYALYPHMTVFDNMAFGLKLRKYSKDEIKKRVEEAAQILGLTEFLERKPADLSGGQRQRVAMGRAIVRDAKVFLMDEPLSNLDAKLRVSMRTEIAKIHRRIGATTIYVTHDQTEAMTLADRIVIMSATKNPAGTGTIGRIEQIGSPEELYNRPVNKFVASFIGSPAMNFFTVTLQDGVLVGDGFKVELPEGRRKHLEEKGYNGKSFTLGIRPEDIKASQLELDTYPSSIVEAEVVVSELLGAETMLYSKVGSTEFVSRVDARDYHNPGDKVRLTFNLNKAHFFDDETSKAIV
notes: MsmK, ATPase of the ABC-type carbohydrate transport system of Streptococcus suis; 378 amino acid residues, open reading frame of 1,137 bp; also called full-length MsmK; source: expressed and purified
B3: N_MsmK (amino acids 1 to 234), His-tagged (domain or fragment, Streptococcus suis, UniProt A0A0H3N1P0 1-234, looked up)
chain: MVQLNLKNIYKKYPNSEHYSVEDFNLDIKDKEFIVFVGPSGCGKSTTLRMIAGLEDITEGEAYIDGVLMNDVAPKDRDIAMVFQNYALYPHMTVFDNMAFGLKLRKYSKDEIKKRVEEAAQILGLTEFLERKPADLSGGQRQRVAMGRAIVRDAKVFLMDEPLSNLDAKLRVSMRTEIAKIHRRIGATTIYVTHDQTEAMTLADRIVIMSATKNPAGTGTIGRIEQIGSPEELY
notes: MsmK of Streptococcus suis, N-terminal domain, aa 1 to 234 of 378; also called N terminus of MsmK; N-terminal domain of MsmK; source: expressed and purified

Data set [1] concerns the molecule itself. Put plainly: transmission electron microscopy; FtsZ (0.6 μM) incubated with 2 mM GTP and/or 1 mM ATP in buffer P, 10 min at 37°C.
Data set [2] has as its target B1. Briefly: SPR; His-tagged FtsZ immobilized onto sensor chips as the ligand; MsmK constructs in concentration series as analytes; buffer without protein as negative control. Particulars: both partners purified.

Consider B1, for which, in data set [1], the binding result is on record as “binds”.

On to B2, for which, in data set [2], the Kd is ≤ 10 nM, the koff was ≤ 1e-05 s⁻¹ and the on-rate (kon) came to 1000 M⁻¹ s⁻¹.

On to B3, for which, in data set [2], the Kd was 332 nM, the koff worked out at 0.000332 s⁻¹ and the on-rate (kon) came to 1000 M⁻¹ s⁻¹.
